Measurements taken from publication PMC4823828, “A squalene synthase-like enzyme initiates production of tetraterpenoid hydrocarbons in Botryococcus braunii Race L” (Nature Communications, 2016).

Key:
BSS (SS from race B) = target: T1, BSS (SS from race B) (Botryococcus braunii, UniProt Q9SDW9); assay: radioactive TLC assay; format: biochemical; details: labelled compound (3H), 10 μM, 2 mM NADPH, 20 mM MgCl2, MOPS pH 6.8, 37 °C
T1 construct: BSS delta399-461: C-terminal transmembrane domain deleted, N-terminal 6xHis (pET28a), E. coli BL21(DE3), Ni-NTA

LSS (SS from race L) = target: T2, LSS (SS from race L) (Botryococcus braunii, UniProt A0A144YEA5); assay: GC-MS product assay; radioactive TLC assay; format: biochemical; details: 10 μM substrate in radioactive assay; 2 mM NADPH, 20 mM MgCl2, MOPS pH 6.8, 37 °C; product squalene
T2 construct: LSS delta399-462: C-terminal transmembrane domain deleted, N-terminal 6xHis (pET28a), E. coli BL21(DE3), Ni-NTA

SlSS = target: T3, SlSS (Solanum lycopersicum, UniProt A0A3Q7ETS2); assay: radioactive TLC assay; format: biochemical; details: labelled compound (3H), 10 μM, 2 mM NADPH, 20 mM MgCl2, MOPS pH 6.8, 37 °C
T3 construct: gene SQS1; SlSS delta387-411: C-terminal transmembrane domain deleted, N-terminal 6xHis (pET28a), E. coli BL21(DE3), Ni-NTA; NM_001247787 assigned to SlSS by judgement

[1] = target: T4, LOS (lycopaoctaene synthase) (Botryococcus braunii, UniProt A0A142ZC57); assay: GC-MS of lycopaoctaene product from GGPP; format: biochemical; details: 20 nM squalestatin; GGPP substrate, NADPH, Mg2+, pH 6.8, 37 °C
T4 construct: LOS delta391-444: C-terminal transmembrane domain deleted from 444-residue protein, N-terminal 6xHis (pET28a), E. coli BL21(DE3), Ni-NTA

SSL-2 = target: T5, SSL-2 (Botryococcus braunii, UniProt G0Y287); assay: radioactive TLC assay; format: biochemical; details: labelled compound (3H), 10 μM; 2 mM NADPH, 20 mM MgCl2, MOPS pH 6.8, 37 °C; product lycopaoctaene (minor)
T5 construct: SSL-2 delta392-465: C-terminal transmembrane domain deleted, N-terminal 6xHis (pET28a), E. coli BL21(DE3), Ni-NTA

[2] = substrate: CC(C)=CCC/C(C)=C/CC/C(C)=C/CC/C(C)=C/COP(=O)(O)OP(=O)(O)O; assay: radioactive steady-state assay, n-hexane extraction, TLC, scintillation counting; format: biochemical, Botryococcus braunii; details: labelled compound (3H), 2 mM NADPH, 20 mM MgCl2, MOPS pH 6.8, 37 °C, 100 nM enzyme
From the text: (§1) radioactive steady-state assay, n-hexane extraction, TLC, scintillation counting on LOS (lycopaoctaene synthase)

[3] = substrate: C/C(=C\COP(=O)(O)OP(=O)(O)O)CCC[C@H](C)CCC[C@H](C)CCCC(C)C; assay: as above; format: biochemical, Botryococcus braunii; details: labelled compound (3H), 2 mM NADPH, 20 mM MgCl2, MOPS pH 6.8, 37 °C, 100 nM enzyme
From the text: as §1

[4] = substrate: CC(C)=CCC/C(C)=C/CC/C(C)=C/CO[P@@](=O)(O)OP(=O)(O)O; assay: as above; format: biochemical, Botryococcus braunii; details: labelled compound (3H), 2 mM NADPH, 20 mM MgCl2, MOPS pH 6.8, 37 °C, 100 nM enzyme
From the text: as §1

T3 sequence (A0A3Q7ETS2 entry or part of it): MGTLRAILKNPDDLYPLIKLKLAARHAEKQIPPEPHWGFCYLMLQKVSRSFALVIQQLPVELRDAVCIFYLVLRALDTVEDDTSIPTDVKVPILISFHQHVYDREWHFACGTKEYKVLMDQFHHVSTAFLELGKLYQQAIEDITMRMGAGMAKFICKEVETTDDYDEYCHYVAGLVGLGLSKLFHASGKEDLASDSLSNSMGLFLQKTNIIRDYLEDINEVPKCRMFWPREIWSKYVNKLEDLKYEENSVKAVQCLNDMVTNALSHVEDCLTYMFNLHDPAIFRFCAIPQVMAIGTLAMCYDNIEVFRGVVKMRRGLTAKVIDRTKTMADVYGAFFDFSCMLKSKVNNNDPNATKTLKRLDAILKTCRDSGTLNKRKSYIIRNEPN
T1 sequence (Q9SDW9 1-398): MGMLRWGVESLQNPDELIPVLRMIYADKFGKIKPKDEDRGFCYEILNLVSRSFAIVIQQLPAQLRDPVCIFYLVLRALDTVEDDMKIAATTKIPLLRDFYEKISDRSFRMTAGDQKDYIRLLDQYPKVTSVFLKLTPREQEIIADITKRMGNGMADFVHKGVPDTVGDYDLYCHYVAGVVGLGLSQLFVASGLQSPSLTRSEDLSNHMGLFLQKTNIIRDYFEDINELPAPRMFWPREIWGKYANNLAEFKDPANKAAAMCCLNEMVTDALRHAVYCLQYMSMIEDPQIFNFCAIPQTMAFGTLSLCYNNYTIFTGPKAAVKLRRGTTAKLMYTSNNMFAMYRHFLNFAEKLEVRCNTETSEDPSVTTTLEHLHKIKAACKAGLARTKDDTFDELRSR
T5 sequence (G0Y287 1-391): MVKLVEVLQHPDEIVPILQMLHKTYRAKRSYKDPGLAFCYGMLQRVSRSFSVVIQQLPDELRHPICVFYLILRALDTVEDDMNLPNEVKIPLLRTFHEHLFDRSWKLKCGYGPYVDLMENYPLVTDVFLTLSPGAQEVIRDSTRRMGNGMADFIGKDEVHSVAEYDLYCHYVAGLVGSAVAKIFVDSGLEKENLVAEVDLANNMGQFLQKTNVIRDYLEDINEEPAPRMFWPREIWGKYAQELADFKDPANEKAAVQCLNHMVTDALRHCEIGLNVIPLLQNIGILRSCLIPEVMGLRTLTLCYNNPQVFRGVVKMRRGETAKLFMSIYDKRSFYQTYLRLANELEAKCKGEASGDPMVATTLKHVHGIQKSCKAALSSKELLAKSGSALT
T2 sequence (A0A144YEA5 1-398): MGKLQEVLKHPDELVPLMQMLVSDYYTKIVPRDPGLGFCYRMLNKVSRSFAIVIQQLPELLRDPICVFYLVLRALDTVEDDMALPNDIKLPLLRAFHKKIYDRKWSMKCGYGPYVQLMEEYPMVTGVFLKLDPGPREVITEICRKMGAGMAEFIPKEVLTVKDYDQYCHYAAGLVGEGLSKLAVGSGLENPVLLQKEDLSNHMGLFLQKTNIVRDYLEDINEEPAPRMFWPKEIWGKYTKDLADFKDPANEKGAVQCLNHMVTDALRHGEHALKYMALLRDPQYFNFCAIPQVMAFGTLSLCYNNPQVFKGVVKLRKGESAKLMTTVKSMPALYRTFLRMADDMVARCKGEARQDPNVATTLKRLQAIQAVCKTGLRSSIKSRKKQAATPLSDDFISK

Molecule: CC(C)=CCC/C(C)=C/CC/C(C)=C/COP(=O)(O)OP(=O)(O)O [FPP]
- radioactive TLC assay (BSS (SS from race B); product squalene): the typical SS enzymes display SS activity as their main catalytic function
- GC-MS product assay; radioactive TLC assay (LSS (SS from race L)): LSS was shown to yield squalene as its sole product in an in vitro assay
- radioactive TLC assay (SlSS; product squalene): the typical SS enzymes display SS activity as their main catalytic function

Molecule: C=C(CC[C@]12O[C@H](C(=O)O)[C@@](O)(C(=O)O)[C@](C(=O)O)(O1)[C@H](OC(=O)/C=C/[C@@H](C)C[C@@H](C)CC)[C@H]2O)[C@@H](OC(C)=O)[C@H](C)Cc1ccccc1 [squalestatin]
- strong inhibition at 20 nM [1]: LOS is strongly inhibited by squalestatin (Fig. 5c), a potent SS inhibitor

Molecule: C/C(=C\COP(=O)(O)OP(=O)(O)O)CCC[C@H](C)CCC[C@H](C)CCCC(C)C [PPP]
- radioactive TLC assay (BSS (SS from race B); product lycopadiene (minute)): BSS and SlSS also using PPP to produce minute amounts of lycopadiene
- radioactive TLC assay (SlSS; product lycopadiene (minute)): BSS and SlSS also using PPP to produce minute amounts of lycopadiene

Molecule: CC(C)=CCC/C(C)=C/CC/C(C)=C/CC/C(C)=C/COP(=O)(O)OP(=O)(O)O [GGPP]
- radioactive TLC assay (SSL-2): allowing SSL-2 and SSL-1 plus SSL-2 to use GGPP to generate minor amounts of lycopaoctaene

B1: LOS (lycopaoctaene synthase) (Botryococcus braunii) (protein)
chain: MKYTDFLAHPDEIIPTIRMMYADYRLKNMEIKDPSVRFCYNMLNRVSRSFAMVIQQLPVELRDATCVFYLILRALDTVEDDMAIPKEVKIPMLRTFHEHLSDRSWKIKCGYGPYVDLMDNYPLVTDVYLRFDEGTKAVIKDITRRMGNGMADFIDLDEVLTIPQYDLYCHYVAGLCGIGMCKLFVDSGLEKEDLVAEEDLANQMGLFLQKNNIVRDYLEDINELPAPRMFWPKEIWGNYAKQLDEFKDPKNLDKAMLCLNHMVTDALRHCEVGLRSLSLLHNPNILRAVLIPQVMGVRTLTLVYNNPEVFRGVVKMRRGETAKIFVTTTSKLSFFRTYLQFANEMEQKCLTEAKNDPMVALTLKRVQGVQAACRAAIVKAEIAEGAKGPS
notes: LOS delta391-444: C-terminal transmembrane domain deleted from 444-residue protein, N-terminal 6xHis (pET28a), E. coli BL21(DE3), Ni-NTA
- Km [2]: 70 ± 20 µM
- kcat [2]: 0.0114 s⁻¹
- kcat/Km [2]: 165 M⁻¹ s⁻¹
- Km [3]: 110 ± 10 µM
- kcat [3]: 0.00116 s⁻¹
- kcat/Km [3]: 10.3 M⁻¹ s⁻¹
- Km [4]: 130 ± 20 µM
- kcat [4]: 0.0205 s⁻¹
- kcat/Km [4]: 162 M⁻¹ s⁻¹
